Where no end group is shown, it is not given here. The star is where a group is joined. FITC = O=C1OC2(c3ccc(O)cc3Oc3cc(O)ccc32)c2ccc(NC(=S)*)cc21; Ahx = NCCCCCC(=O)O
T1: porcine aminopeptidase N (APN), His-tagged whole protein (porcine, UniProt P15145 1-963)
T1 sequence: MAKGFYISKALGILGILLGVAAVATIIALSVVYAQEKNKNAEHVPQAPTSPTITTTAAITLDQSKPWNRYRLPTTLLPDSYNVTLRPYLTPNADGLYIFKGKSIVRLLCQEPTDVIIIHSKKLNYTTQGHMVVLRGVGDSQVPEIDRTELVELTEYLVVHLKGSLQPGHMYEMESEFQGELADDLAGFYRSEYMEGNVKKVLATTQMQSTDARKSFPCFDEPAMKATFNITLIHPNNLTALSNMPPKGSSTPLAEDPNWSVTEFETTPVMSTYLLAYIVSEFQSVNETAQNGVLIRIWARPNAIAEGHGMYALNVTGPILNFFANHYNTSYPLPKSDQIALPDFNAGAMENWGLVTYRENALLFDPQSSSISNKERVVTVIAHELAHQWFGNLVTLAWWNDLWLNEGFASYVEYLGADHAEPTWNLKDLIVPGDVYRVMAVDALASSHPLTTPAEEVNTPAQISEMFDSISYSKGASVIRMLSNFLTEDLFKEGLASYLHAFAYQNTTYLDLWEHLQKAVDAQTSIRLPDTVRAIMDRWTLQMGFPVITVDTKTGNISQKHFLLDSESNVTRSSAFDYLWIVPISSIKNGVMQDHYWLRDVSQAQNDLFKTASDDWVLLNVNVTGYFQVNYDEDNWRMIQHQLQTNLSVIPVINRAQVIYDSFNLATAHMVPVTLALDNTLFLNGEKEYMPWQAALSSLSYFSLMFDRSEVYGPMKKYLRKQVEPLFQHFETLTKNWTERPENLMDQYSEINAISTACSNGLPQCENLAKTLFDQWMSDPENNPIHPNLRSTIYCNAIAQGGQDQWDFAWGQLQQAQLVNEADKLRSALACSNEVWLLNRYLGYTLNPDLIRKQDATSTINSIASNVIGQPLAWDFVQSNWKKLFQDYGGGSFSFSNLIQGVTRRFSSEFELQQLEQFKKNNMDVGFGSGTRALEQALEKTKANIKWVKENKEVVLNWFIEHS

B1: FaeG membrane spots 133–135 (200–218 AA), F4ac (peptide)
peptide: TKLFGSLSRNDILGQIQRV
B2: FaeG membrane spot 116 (149–161 AA), F4ac (peptide)
peptide: NASYAGVLGRGGV
B3: peptide F4ac 200–218 (peptide)
peptide: {FITC-Ahx}-TKLFGSLSRNDILGQIQRV
B4: FaeG membrane spot 59 (175–187 AA), F4ab (peptide)
peptide: LRAIFYGGLTTTV
B5: peptide F4ad 200–218 (peptide)
peptide: {FITC-Ahx}-ARTELFGSLSKNDILGQIQ
B6: FaeG membrane spot 181 (176–188 AA), F4ad (peptide)
peptide: HAIFYGGLPTNVK
B7: peptide F4ab 148–160 (peptide)
peptide: {FITC-Ahx}-NASYAGVFGKGGV
B8: APN∆1 (401–963 AA) (domain or fragment)
chain: DLWLNEGFASYVEYLGADHAEPTWNLKDLIVPGDVYRVMAVDALASSHPLTTPAEEVNTPAQISEMFDSISYSKGASVIRMLSNFLTEDLFKEGLASYLHAFAYQNTTYLDLWEHLQKAVDAQTSIRLPDTVRAIMDRWTLQMGFPVITVDTKTGNISQKHFLLDSESNVTRSSAFDYLWIVPISSIKNGVMQDHYWLRDVSQAQNDLFKTASDDWVLLNVNVTGYFQVNYDEDNWRMIQHQLQTNLSVIPVINRAQVIYDSFNLATAHMVPVTLALDNTLFLNGEKEYMPWQAALSSLSYFSLMFDRSEVYGPMKKYLRKQVEPLFQHFETLTKNWTERPENLMDQYSEINAISTACSNGLPQCENLAKTLFDQWMSDPENNPIHPNLRSTIYCNAIAQGGQDQWDFAWGQLQQAQLVNEADKLRSALACSNEVWLLNRYLGYTLNPDLIRKQDATSTINSIASNVIGQPLAWDFVQSNWKKLFQDYGGGSFSFSNLIQGVTRRFSSEFELQQLEQFKKNNMDVGFGSGTRALEQALEKTKANIKWVKENKEVVLNWFIEHS
B9: APN∆5 (332–963 AA) (domain or fragment)
chain: PLPKSDQIALPDFNAGAMENWGLVTYRENALLFDPQSSSISNKERVVTVIAHELAHQWFGNLVTLAWWNDLWLNEGFASYVEYLGADHAEPTWNLKDLIVPGDVYRVMAVDALASSHPLTTPAEEVNTPAQISEMFDSISYSKGASVIRMLSNFLTEDLFKEGLASYLHAFAYQNTTYLDLWEHLQKAVDAQTSIRLPDTVRAIMDRWTLQMGFPVITVDTKTGNISQKHFLLDSESNVTRSSAFDYLWIVPISSIKNGVMQDHYWLRDVSQAQNDLFKTASDDWVLLNVNVTGYFQVNYDEDNWRMIQHQLQTNLSVIPVINRAQVIYDSFNLATAHMVPVTLALDNTLFLNGEKEYMPWQAALSSLSYFSLMFDRSEVYGPMKKYLRKQVEPLFQHFETLTKNWTERPENLMDQYSEINAISTACSNGLPQCENLAKTLFDQWMSDPENNPIHPNLRSTIYCNAIAQGGQDQWDFAWGQLQQAQLVNEADKLRSALACSNEVWLLNRYLGYTLNPDLIRKQDATSTINSIASNVIGQPLAWDFVQSNWKKLFQDYGGGSFSFSNLIQGVTRRFSSEFELQQLEQFKKNNMDVGFGSGTRALEQALEKTKANIKWVKENKEVVLNWFIEHS
B10: FaeG membrane spot 125 (176–188 AA), F4ac (peptide)
peptide: LSSIFYGGLPRGS
B11: FaeG membrane spot 50 (148–160 AA), F4ab (peptide)
peptide: NASYAGVFGKGGV
B12: FaeG membrane spots 189–191 (200–218 AA), F4ad (peptide)
peptide: ARTELFGSLSKNDILGQIQ
B13: FaeG membrane spot 172 (149–161 AA), F4ad (peptide)
peptide: ASYAGALGRGGVT

Assays:
Settings in all cases: both partners purified
[1] = biological target: T1, porcine aminopeptidase N (APN), …; test: peptide or protein array; FaeG membrane: 205 spots of 13-mers offset by 3 on cellulose membrane, incubated with 1 mg/mL purified soluble APN, blotted with polyclonal antibodies against APN; intensity > 30% of the strongest spot positive
[2] = biological target: T1, porcine aminopeptidase N (APN), …; test: ELISA; APN protein coated on plates, incubated with FaeG peptides, fusion FaeG proteins or F4 fimbriae; absorbance at 450 nm
[3] = biological target: GST-tagged FaeG fusion protein of F4ac (Escherichia coli, UniProt P14190 22-283); test: ELISA; indirect ELISA: APN and its five truncated proteins coated at 100 μg/mL in carbonate-bicarbonate buffer pH 9.6, incubated with 100 μg/mL FaeG fusion protein, detected with anti-F4 monoclonal antibody

Binder	binding result [1]	further results
B1	binds	–
B2	binds	–
B3	–	binding result [2]: binds
B4	binds	–
B5	–	binding result [2]: binds
B6	binds	–
B7	–	binding result [2]: binds
B8	–	binding result [3]: binds
B9	–	binding result [3]: binds
B10	binds	–
B11	binds	–
B12	binds	–
B13	binds	–
